Tests used:
[1] = molecular target: T1, HpHSP60 fragment including positions 101-200 (Helicobacter pylori, UniProt B2UW12 101-200); assay: recognition of HpHSP60 fragments by the antibody (spot/blot, FIG. 15)
T1 construct: also called HSP 60 101-200
T1 sequence: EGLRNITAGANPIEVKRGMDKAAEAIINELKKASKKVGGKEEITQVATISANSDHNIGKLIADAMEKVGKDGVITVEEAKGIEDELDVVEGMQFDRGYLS

[2] = molecular target: T2, HpHSP60 fragment Δ[1], positions 134-200 of HpHSP60 (Helicobacter pylori, UniProt B2UW12 134-200); assay: recognition of HpHSP60 fragments by the antibody (spot/blot, FIG. 16)
T2 sequence: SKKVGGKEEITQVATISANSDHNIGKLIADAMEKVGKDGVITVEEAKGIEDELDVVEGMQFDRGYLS

[3] = molecular target: T3, HpHSP60 fragment Δ[5], positions 101-168 of HpHSP60 (Helicobacter pylori, UniProt B2UW12 101-168); assay: as above
T3 sequence: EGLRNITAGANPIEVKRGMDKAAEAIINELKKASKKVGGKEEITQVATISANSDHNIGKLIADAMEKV

B1: LHP-1 (9E4) antibody (antibody, V domains shown)
VH: EVHLVESGGDLVKPGGSLKLSCAASGFTFSSFGMSWVRQTPDKRLEWVATISNGGSYTYYPDSVKGRFTISRDNAKNTLYLQMSSLKSEDTAMYYCTRQGLRRRGAMDYWGQGTSVTVSS
VL: DIVLTQSPASLAVSLGQRATISCKASQSVDYDGDVFLNWYQQKPGQPPKLLIYAASNLESGIPARFSGSGSGTDFTLNIHPVEEDDAATYYCQQSNEVPWTFGGGTKLEIK
notes: Mouse monoclonal antibody from hybridoma 9E4 (ATCC PTA-122900); The variable regions are tied to the deposited hybridoma only in the claims; also called LHP-1 (9E4) mAb; monoclonal antibody produced by hybridoma ATCC PTA-122900
- binding result [1]: binds
- binding result [2]: binds
- binding result [3]: no binding

— patent US20200010534A1 (SAGABIO, published 2020)
